# Source: the DeepSol protein solubility set
# Experiment: soluble on expression in E. coli; label from the status in PepcDB or PDB records
row,Sequence,soluble on expression in E. coli
1,MSLEKVKVAVIGAGNRGMYAYAPYIYENSDVCEIVAVAEPKKGRRELFTKKYNLDSKNVFETLEDFFKHDKMADAVIIATNDDRHYDVAKLALEKGYHVLLEKPMSNSLDGLVHIDDLCDKYKDKIFMICHVLRYSPFYNKLKEIVESKKLGELVSIQYNENIGYWHFAHSFTRGNWRNSNETSPLILAKSCHDMDILLYLVGSRCKKISAFGSLKHLNNQNASGEMAQNCLQCLVEKKCPYSAKRIYLEKDRSINRAVHINPTEENLLNILKTSPYGRCVYRCDNNVVDNMVNILQFENGVTATFNLCAFTKENGRTIKLMFSHGEVGGDLNKNEIRIKEFGKNEEIVMNPSNQQNMVEEYDRNLIAEFIKLVSNKELEKGRVAAKEAIQSHVMAFAAEYSRVSDEVVYIEEFFDSAKQMTKEIEETEGHHHHHH,soluble
2,MSLELKITDFKVFVAQANFEWAFVRIYSKDLYGTGEAGPAPGLKGMESEFIQLLIGEDAFKVNRIAEKLRYATLYSGTTVYHLISAINIALYDLIGKYLNVPIYKLLGGDKTEIPVYVDAHGGKGLEAINALHLPVNLPWIKEAEVETNRLITTNNPVHGRLSMEKWNEDYSPEAYAKRALKMKNEGYKAMKFDLDVPTPYIDLRRVRNGDLSLKDIDYMVDIVKAVRESVGDEVEIMFDLHWRYNLNTAIRICKALEPYRLRWLEDPMPAIMAVSNYDELKLLTSQCSVPIETGENLYTVYQFKDLLNTGVRVWAPDIVKAGGITEGRRIAELAAMYDIEYSPHNIASPIGTMAHAHVGSIANTFGFVEFHGHDVPFWNEIVKPKRKIIEDGVIKLTDDPGLGIDLDDEVMRKYWPTYELEGHHHHHH,not soluble
3,MSLELSPTYQTERFTKFSDTLKEFKIEQNNEQNPIDPFNIIREFRSAAGQLALDLANSGDESNVISSKDWELEARFWHLVELLLVFRNADLDLDEMELHPYNSRGLFEKKLMQDNKQLYQIWIVMVWLKENTYVMERPKNVPTSKWLNSITSGGLKSCDLDFPLRENTNVLDVKDKEEDHIFFKYIYELILAGAIDEALEEAKLSDNISICMILCGIQEYLNPVIDTQIANEFNTQQGIKKHSLWRRTVYSLSQQAGLDPYERAIYSYLSGAIPNQEVLQYSDWESDLHIHLNQILQTEIENYLLENNQVGTDELILPLPSHALTVQEVLNRVASRHPSESEHPIRVLMASVILDSLPSVIHSSVEMLLDVVKGTEASNDEGHHHHHH,not soluble
4,MSLEPASAPKVERLEVSAYTVPTETPESDGTIAWSETTLVMVRMAACGAEGLGYTFADVATAALIDAHLKDAVVGHNPLNIPELWSTMVRKVRNLGRPGVCSMAISAVDNALWDLKARLLHLSVADLLGRAHDSIGAYGSGGFTSYSDEELRQQLTGWIGQGLTQVKMKIGSDPASDLARVRSARGAIGPDAELFVDANGAYDRKQALAKAAAFADLGVSWFEEPVSSDDLAGLRLIRERAPAGMRIAAGEYGYDSFYFRRMLEAEAVDVLQGDATRCAGITGFLAAGNLSTSFSTPFSAHTAPSLHAHAACALTSAINVEYFFDHYRIEQMFFDGALVPSNGVLRPDSTRPGFGLECKLSDMEKYRVYGNVTTEGHHHHHH,not soluble
5,MSLEQNPVDLDSLTLVNEDELETSVALDNMARRARNGCNEQLKVLCHRIEYLFESKREVNEHNNPLEPRQLVACFSEGLEKLSLDIKARLIILKLFEREVMAETGYLVSEANKVLIDAGVLPEMKSAPIAPAHKPGSRSLANQGNDNVMPTAGNAGVHSNDQVFGLLQELLVTMRGMQARPGDGASDVASEAPMAVMQNGVPYMNGAPLANAASVHQVNSDDLLGVLNRLQRVERSLGEDEGEERADLKTDLSELLDNEHGEAIHALDQADDDVINLVALLFDFILDDEGLPSDIKALLGRLQIPLLKVAIMDKAFFNNDNHEARLLLNMLARAGSQWDPHLGIQDDLYQRINHAVHRIIDDYEDDASLFSSLLQEFQQFFDSQKTRSDRVEQRVREAEEGKARAEQARREVVTVLDNRMAGRQLPDVVVRLLRQGWQQALYLTWLHEGENSPLWQQQVKVVDAVVWSVLEHRDQDALEKLKTLSPKLLKTLHEGLTKINHDAMETKQLLVKFRDVHHRLLKGLQTERVAVEPELPAQRAQPETAPELPENHFLVKKCSQLAPGQWIEIQDNDEPRRAKLAANIRAGVKIVFTNRRGIKVQEYSAYTLAVALHNGAVKLIDEGALFDRALEAVIGDLRRMQGNEGHHHHHH,not soluble
